Experimental findings from article PMC10564622 (Free Radical Biology & Medicine, 2023) are described below.

Holding throughout (conditions): both partners purified
Experiment [1] deals with T1, AF488-labeled CUL3NTD (human, UniProt Q13618 1-388, I342R | L346D, AF488 by direct acylation with AF488-Tfp (sites not given)).
T1 construct: human CUL3 N-terminal domain, residues 1-388, in vector pNIC-CTHF, with the stabilising mutations I342R and L346D; Fluorescent tracer of the TR-FRET assays; also called AF488-CUL3NTD; source: E. coli BL21(DE3)-pRARE2, purified (nickel sepharose, TEV cleavage, SEC), labeled with AF488-Tfp; not shown: His6, C-terminal, cleaved; FLAG, C-terminal, cleaved
Put plainly: FRET or BRET; TR-FRET protein displacement assay: CoraFluor-1-labeled KLHL11 (3 nM at 1.5x) and AF488-labeled CUL3NTD (45 nM at 1.5x); unlabeled protein titrated 1:3, 12 points, cmax 25 uM; 2 h at room temperature; 25 mM HEPES, 150 mM NaCl, 1 mM DTT, 0.5 mg/mL BSA, 0.005% TWEEN-20, pH 7.5; KD from IC50 by Cheng-Prusoff. A general note: BRET reads energy transfer from a luciferase to a nearby fluorophore.

Experiment [2] deals with T2, CUL3 N-terminal domain (CUL3NTD, residues 1-388), unlabeled (human, UniProt Q13618 1-388, I342R | L346D).
T2 construct: human CUL3 N-terminal domain, residues 1-388, in vector pNIC-CTHF, with the stabilising mutations I342R and L346D; source: E. coli BL21(DE3)-pRARE2, purified (nickel sepharose, TEV cleavage, SEC); not shown: His6, C-terminal, cleaved; FLAG, C-terminal, cleaved
The description is as above.

Experiment [3] addresses T3, CUL3_(NTDΔ22) (CUL3 residues 23–388, I342R L346D) (human, UniProt Q13618 23-388, I342R | L346D).
T3 construct: human CUL3, Uniprot Q13618, residues 23–388, vector pNIC-CTHF, with stabilising mutations I342R and L346D; also called CUL3_(NTDΔN22); source: E. coli BL21(DE3)-pRARE2, purified (nickel sepharose, TEV cleavage, SEC); not shown: His6, C-terminal, cleaved; FLAG, C-terminal, cleaved
Put plainly: FRET or BRET; TR-FRET protein displacement assay: CoraFluor-1-labeled KLHL11_(BTB-BACK) + AF488-labeled CUL3NTD, unlabeled protein titrated (cmax 25 μM); assay buffer pH 7.5, 2 h, room temperature; KD from IC50 by Cheng-Prusoff.

The target of experiment [4] is T4, AF488-labeled CUL3NTD (human, UniProt Q13618 1-388, I342R | L346D, AF488 by direct acylation with AF488-Tfp (sites not given)).
T4 construct: human CUL3, Uniprot Q13618, residues 1–388, vector pNIC-CTHF, with stabilising mutations I342R and L346D; also called AF488-CUL3NTD; source: E. coli BL21(DE3)-pRARE2, purified (nickel sepharose, TEV cleavage, SEC), labeled with AF488-Tfp; not shown: His6, C-terminal, cleaved; FLAG, C-terminal, cleaved
Put plainly: FRET or BRET; TR-FRET saturation binding: AF488-labeled CUL3NTD titrated (cmax 1000 nM) onto CoraFluor-1-labeled KEAP1 or KLHL11; 25 mM HEPES, 150 mM NaCl, 1 mM DTT, 0.5 mg/mL BSA, 0.005% TWEEN-20, pH 7.5; 2 h, room temperature; One Site – Total Binding model.

For experiment [5], the target named is T4, AF488-labeled CUL3NTD. Put plainly: FRET or BRET; TR-FRET dissociation: pre-equilibrated 20 nM CoraFluor-1-KEAP1 + 300 nM AF488-CUL3NTD, or 2 nM CoraFluor-1-KLHL11 + 45 nM AF488-CUL3NTD; 25 μM unlabeled KLHL11 added, read for 30 min; one-phase decay.
The target of experiment [6] is T2, CUL3 N-terminal domain (CUL3NTD, …). Put plainly: BLI; Octet RED384; biotinylated KEAP1BTB-3-box immobilised on streptavidin tips; analyte in 50 mM HEPES, 300 mM NaCl, 0.5 mM TCEP, 10 mM DTT, 0.01% TWEEN-20; steady-state equilibrium analysis, 1:1 model; apparent.
Experiment [7] has as its target T5, full length CUL3-RBX1 complex (human | , UniProt Q13618 1-768; P62877 1-108). Put plainly: BLI; Octet RED384; biotinylated KEAP1BTB-3-box immobilised on streptavidin tips; analyte in 50 mM HEPES, 300 mM NaCl, 0.5 mM TCEP, 10 mM DTT, 0.01% TWEEN-20; kinetic global fit, 1:1 model; apparent.
For experiment [8], the target named is T2, CUL3 N-terminal domain (CUL3NTD, …). The description is as above.
Experiment [9] addresses T5, full length CUL3-RBX1 complex. Put plainly: BLI; Octet RED384; biotinylated KEAP1BTB-3-box immobilised on streptavidin tips; analyte in 50 mM HEPES, 300 mM NaCl, 0.5 mM TCEP, 10 mM DTT, 0.01% TWEEN-20; steady-state equilibrium analysis, 1:1 model; apparent. In general terms: In BLI a coated tip is dipped into the sample, and binding shifts an interference pattern.
Experiment [10] deals with T2, CUL3 N-terminal domain (CUL3NTD, …). In words: BLI; Octet RED384; biotinylated KEAP1BTB-3-box immobilised on streptavidin tips; analyte in 50 mM HEPES, 300 mM NaCl, 0.5 mM TCEP, 10 mM DTT, 0.01% TWEEN-20; kinetic global fit, 1:1 model; apparent. The source holds these as a separate data set.

T5 sequence (Q13618 whole entry, chain 1 of 2, the tested form may be a part): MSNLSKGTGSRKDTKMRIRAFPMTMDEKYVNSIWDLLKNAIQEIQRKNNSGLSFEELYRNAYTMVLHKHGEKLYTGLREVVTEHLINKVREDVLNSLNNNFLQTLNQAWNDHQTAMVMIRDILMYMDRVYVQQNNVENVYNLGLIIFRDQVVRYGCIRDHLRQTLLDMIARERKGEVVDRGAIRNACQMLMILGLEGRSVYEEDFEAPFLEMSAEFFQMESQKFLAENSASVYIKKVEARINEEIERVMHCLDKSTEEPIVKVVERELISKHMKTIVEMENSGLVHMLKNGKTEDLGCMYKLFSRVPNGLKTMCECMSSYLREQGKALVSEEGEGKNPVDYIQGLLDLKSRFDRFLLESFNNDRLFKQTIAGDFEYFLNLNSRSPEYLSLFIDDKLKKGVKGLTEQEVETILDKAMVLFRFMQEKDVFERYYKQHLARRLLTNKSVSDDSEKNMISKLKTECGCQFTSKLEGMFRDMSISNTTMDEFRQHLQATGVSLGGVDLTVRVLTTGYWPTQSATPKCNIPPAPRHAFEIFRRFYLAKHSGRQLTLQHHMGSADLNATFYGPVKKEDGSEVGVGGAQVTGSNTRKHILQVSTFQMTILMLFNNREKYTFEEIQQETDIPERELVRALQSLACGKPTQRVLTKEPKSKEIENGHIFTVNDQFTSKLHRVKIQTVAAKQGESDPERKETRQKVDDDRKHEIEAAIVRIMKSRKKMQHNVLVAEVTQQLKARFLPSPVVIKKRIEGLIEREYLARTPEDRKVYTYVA
T5 sequence (P62877 whole entry, chain 2 of 2, the tested form may be a part): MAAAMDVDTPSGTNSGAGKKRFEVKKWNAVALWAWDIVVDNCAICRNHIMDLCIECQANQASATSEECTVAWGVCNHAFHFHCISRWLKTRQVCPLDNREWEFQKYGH

B1: KLHL11 BTB-BACK (residues 67-340), unlabeled (domain or fragment, human, UniProt Q9NVR0 67-340, looked up)
chain: EAEDFECSSHCSELSWRQNEQRRQGLFCDITLCFGGAGGREFRAHRSVLAAATEYFTPLLSGQFSESRSGRVEMRKWSSEPGPEPDTVEAVIEYMYTGRIRVSTGSVHEVLELADRFLLIRLKEFCGEFLKKKLHLSNCVAIHSLAHMYTLSQLALKAADMIRRNFHKVIQDEEFYTLPFHLIRDWLSDLEITVDSEEVLFETVLKWVQRNAEERERYFEELFKLLRLSQMKPTYLTRHVKPERLVANNEVCVKLVADAVERHALRAENIQSGT
notes: human KLHL11 BTB and BACK domains, residues 67-340, in vector pNIC28-Bsa4; source: E. coli BL21(DE3)-pRARE2, purified (nickel sepharose, TEV cleavage, SEC); not shown: His6, N-terminal, cleaved
Consider B1, for which the Kd with AF488-labeled CUL3NTD [1] stood at 14 nM.

B2: CoraFluor-1-labeled KLHL11 BTB-BACK (domain or fragment, human, UniProt Q9NVR0 67-340, looked up)
chain: EAEDFECSSHCSELSWRQNEQRRQGLFCDITLCFGGAGGREFRAHRSVLAAATEYFTPLLSGQFSESRSGRVEMRKWSSEPGPEPDTVEAVIEYMYTGRIRVSTGSVHEVLELADRFLLIRLKEFCGEFLKKKLHLSNCVAIHSLAHMYTLSQLALKAADMIRRNFHKVIQDEEFYTLPFHLIRDWLSDLEITVDSEEVLFETVLKWVQRNAEERERYFEELFKLLRLSQMKPTYLTRHVKPERLVANNEVCVKLVADAVERHALRAENIQSGT
modifications: CoraFluor-1 by direct acylation with CoraFluor-1-Pfp (sites not given)
notes: human KLHL11 BTB and BACK domains, residues 67-340, in vector pNIC28-Bsa4; TR-FRET donor protein; source: E. coli BL21(DE3)-pRARE2, purified (nickel sepharose, TEV cleavage, SEC), labeled with CoraFluor-1-Pfp; not shown: His6, N-terminal, cleaved
Regarding B2, in [2], the Kd is 8 nM.

B3: CoraFluor-1-labeled KLHL11_(BTB-BACK) (domain or fragment, human, UniProt Q9NVR0 67-340, looked up)
chain: EAEDFECSSHCSELSWRQNEQRRQGLFCDITLCFGGAGGREFRAHRSVLAAATEYFTPLLSGQFSESRSGRVEMRKWSSEPGPEPDTVEAVIEYMYTGRIRVSTGSVHEVLELADRFLLIRLKEFCGEFLKKKLHLSNCVAIHSLAHMYTLSQLALKAADMIRRNFHKVIQDEEFYTLPFHLIRDWLSDLEITVDSEEVLFETVLKWVQRNAEERERYFEELFKLLRLSQMKPTYLTRHVKPERLVANNEVCVKLVADAVERHALRAENIQSGT
modifications: CoraFluor-1 by direct acylation with CoraFluor-1-Pfp (sites not given)
notes: human KLHL11, Uniprot Q9NVR0, residues 67–340, vector pNIC28-Bsa4; source: E. coli BL21(DE3)-pRARE2, purified (nickel sepharose, TEV cleavage, SEC), labeled with CoraFluor-1-Pfp; not shown: His6, N-terminal, cleaved
A word on the koff: it is a measure of how fast the partners let go of each other. As for B3, the Kd in experiment [3] is 1840 nM; in the experiment with AF488-labeled CUL3NTD [4], 20 nM. Moreover, the koff in the experiment with AF488-labeled CUL3NTD [5] was determined as 0.00381 s⁻¹.

B4: Biotinylated KEAP1 BTB-3-box (residues 48-213) (domain or fragment, human, UniProt Q14145 48-213, looked up)
chain: GNRTFSYTLEDHTKQAFGIMNELRLSQQLCDVTLQVKYQDAPAAQFMAHKVVLASSSPVFKAMFTNGLREQGMEVVSIEGIHPKVMERLIEFAYTASISMGEKCVLHVMNGAVMYQIDSVVRACSDFLVQQLDPSNAIGIANFAEQIGCVELHQRAREYIYMHFGE
modifications: biotin on the avi tag
The kon is the rate constant with which the complex forms. As to B4, the Kd in [6] came out at 2900 nM; in [7], 5600 nM; in experiment [8] it was 5200 nM; in experiment [9], 4400 nM. In addition, the koff in experiment [7] is 0.187 s⁻¹; in experiment [10] it was 0.189 s⁻¹. The kon in [7] worked out at 33200 M⁻¹ s⁻¹; in [10] it was 36600 M⁻¹ s⁻¹.
